Test results published in article PMC5209733, “U24 from Roseolovirus interacts strongly with Nedd4 WW Domains” (Scientific Reports, 2017).
Non-standard residues stand in square brackets, D forms with d. No end group written: not given here. pT = C[C@@H](OP(=O)(O)O)[C@H](N)C(=O)O

Tests used:
[1] = biological target: T1, rNedd4-WW3/4 domain (third WW domain of rat Nedd4, GST tag removed) (rat, UniProt Q62940 452-499); assay: ITC; peptide titrated into the cleaved WW domain (40 to 150 uM) in the cell; 10 mM sodium phosphate, pH 7.4, 25 °C; MicroCal VP-ITC; bimolecular interaction model; three runs (further runs with 100 mM and 500 mM NaCl told in words only); settings: both partners purified
T1 construct: Nedd4 E3 ubiquitin ligase, rat, third WW domain (WW3/4, homologue of the fourth WW domain in human); Thrombin cleavage may leave vector residues at the N-terminus (surmised); source: E. coli BL21(DE3), purified (Glutathione Sepharose 4B, thrombin cleavage on the resin); 15N-labelled in M9 medium for NMR; not shown: GST, N-terminal, cleaved

[2] = biological target: T2, U24-6A protein (recombinant full length U24 from HHV-6A) (Human Herpes Virus type 6A (HHV-6A), UniProt Q69559 1-87); assay: pull-down; GST-Nedd4 WW domain (1 to 2 nmole) immobilised on 20 uL Glutathione Sepharose 4B resin, incubated 1 hour at 4 °C with U24 protein in pull down buffer (20 mM KH2PO4, 75 mM NaCl, 0.5% Triton X-100, pH 7.4; 1 mM DTT for U24-7); SDS-PAGE, silver stain; settings: both partners purified
T2 construct: U24 protein of Human Herpes Virus type 6A (HHV-6A), full length
T2 sequence: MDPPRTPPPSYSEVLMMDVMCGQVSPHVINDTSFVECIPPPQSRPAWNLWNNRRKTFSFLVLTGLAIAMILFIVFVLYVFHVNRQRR

Binder	Kd [1] [µM]	dH [1] [kcal/mol]	binding result [2]
MDPPRTPPPSYSEVL (U24 protein of Human Herpes Virus type 6A (HHV-6A), first 15 residues; source: purified peptide) [U24-6A peptide (15-mer, N-terminus of U24 from HHV-6A)]	43	-11	
MDPPR[pT]PPPSYSEVL (U24 protein of Human Herpes Virus type 6A (HHV-6A), 15-mer of the N-terminus with phospho-threonine at Thr6; source: purified peptide) [pU24-6A peptide (15-mer, N-terminus of U24 from HHV-6A phosphorylated at Thr6)]	13.5	-12.9	
QSFLPPGWEMRIAPNGRPFFIDHNTKTTTWEDPRLKFPVHMRSK (domain or fragment, Nedd4-like protein (Nedd4L), human, cDNA clone KIAA0439, third WW domain (WW3*); Cloned into BamHI and XhoI sites of pGEX-4T2; source: E. coli BL21(DE3), purified (Glutathione Sepharose 4B, eluted with glutathione); not shown: GST, N-terminal, kept) [GST-hNedd4L-WW3* (third WW domain of human Nedd4-like protein fused to the C-terminus of GST)]			binds
PVDSNDLGPLPPGWEERTHTDGRVFFINHNIKKTQWEDPRMQNVAITG (domain or fragment, Nedd4 E3 ubiquitin ligase, rat, third WW domain (WW3/4, homologue of the fourth WW domain in human); Plasmid was a gift from J. D. Forman-Kay; source: E. coli BL21(DE3), purified (Glutathione Sepharose 4B, eluted with glutathione); not shown: GST, N-terminal, kept) [GST-rNedd4-WW3/4 (third WW domain of rat Nedd4 fused to the C-terminus of GST)]			binds
